Reference: patent US20240133885A1 (UNIVERSITY OF SOUTHERN CALIFORNIA, published 2024)
Read-outs that look alike come from different tables or passages of the source.

Tests used:
[1] = target: T1, CD324-SC10-6-(vL-vH)-MYC-BBz-T2A-PAC; experiment: NLuc assay, supernatant on 293FT cells transfected with the CAR
T1 construct: Entry = whole construct incl; T2A-PAC; also called CDH1/CD324-specific CAR; 052516-B07

[2] = target: T2, CD324-hSC10-17-(vL-vH)-MYC-BBz-T2A-PAC; experiment: as above
T2 construct: Entry = whole construct incl; T2A-PAC; also called CDH1/CD324-specific CAR; 052516-A07

[3] = target: T3, CD19 (human, UniProt P15391 20-556); experiment: Luc assay, supernatant on BV173 cells
T3 construct: whole, on cells; Endogenous antigen of the cell lines tested (RAJI stated CD19 positive); also called human CD19

[4] = target: T3, CD19; experiment: Luc assay, supernatant on RAJI cells
[5] = target: T3, CD19; experiment: Luc assay, supernatant on MM1S cells
[6] = target: T3, CD19; experiment: Luc assay, supernatant on BC1 cells
[7] = target: T3, CD19; experiment: Luc assay, supernatant on U266 cells
[8] = target: T3, CD19; experiment: Luc assay, supernatant on BCBL-1 cells
[9] = target: T3, CD19; experiment: Luc assay, supernatant on BC-3 cells
[10] = target: T3, CD19; experiment: Luc assay, supernatant on JSC-1 cells
[11] = target: T4, Luc90-(vL-vH)-MYC-CD28z-T2A-Pac; experiment: NLuc assay, supernatant on 293FT cells transfected with the CAR
T4 construct: Entry = whole construct incl; T2A-Pac; also called SLAMF7/CS1-specific CAR; 031915-F03

[12] = target: T5, FMC63-(vL-vH)-Myc-BBz-T2A-Pac; experiment: as above
T5 construct: Entry = whole construct incl; T2A-Pac; also called FMC63-CAR; CD19 (FMC63)-CAR

[13] = target: T5, FMC63-(vL-vH)-Myc-BBz-T2A-Pac; experiment: NLuc assay, supernatant on CAR T cells
[14] = target: T6, J6MO-(vL-vH)-MYC-28z-T2A-Pac; experiment: NLuc assay, supernatant on NK92MI cells expressing the CAR
T6 construct: CAR on NK92MI cells; Entry = whole construct incl; T2A-Pac; also called BCMA-specific CAR; 031915-G02

[15] = target: T1, CD324-SC10-6-(vL-vH)-MYC-BBz-T2A-PAC; experiment: NLuc assay, supernatant on transfected 293FT cells
[16] = target: T4, Luc90-(vL-vH)-MYC-CD28z-T2A-Pac; experiment: NLuc assay, supernatant on transfected 293FT cells
[17] = target: T7, CD200R-huDx182-(vL-vH)-Myc-BBz-T2A-PAC; experiment: NLuc assay, supernatant on transfected 293FT cells
T7 construct: Entry = whole construct incl; T2A-PAC; also called CD200R-specific CAR

[18] = target: T2, CD324-hSC10-17-(vL-vH)-MYC-BBz-T2A-PAC; experiment: NLuc assay, supernatant on transfected 293FT cells
[19] = target: T5, FMC63-(vL-vH)-Myc-BBz-T2A-Pac; experiment: NLuc assay, supernatant on 293FT cells transfected with the CAR; remark: listed apart in the source
[20] = target: T3, CD19; experiment: Luc assay, supernatant on HL60 cells (stated CD19-, CD20-, CD33+)
[21] = target: T3, CD19; experiment: Luc assay, supernatant on Raji cells (stated CD19+, CD20+, CD33-)

B1: CDH1-ECD-GGSG-NLuc-4xFlag-2xStreptag-8xHis-T2A-Pac (receptor)
chain: not shown
notes: Entry = whole insert incl; T2A-Pac; also called 062816-G02
How did the “Mean Luc activity” value [1] turn out when B1 was run?
The value was 2.9e+06.

And the “Mean Luc activity” value [2]?
The value was 2.02e+06.

B2: CD8SP-CD19-4G7-(vL-vH)-GGSG-NLuc-4xFLAG-x2STREP-8xHis-T2A-PAC (scFv)
scFv: not shown
notes: Entry = whole insert incl. signal peptide and T2A-PAC; also called 062916-C08
For B2, which Luc activity [3] is on record?
The Luc activity was 121000.

What about the “Mean Luc activity” value [4] of the same binder?
The value was 397000.

And the Luc activity [5]?
The Luc activity was 10400.

What about the “Mean Luc activity” value [6] of the same binder?
The value was 52300.

And the Luc activity [7]?
The Luc activity was 6540.

What about the Luc activity [8] of the same binder?
Its Luc activity is 14000.

And the Luc activity [9]?
Its Luc activity is 6180.

And the Luc activity [10]?
Its Luc activity is 13300.

B3: FLAG-CD19-ECD-GGSG-NLuc-AcV5 (receptor)
chain: not shown
notes: Entry = whole insert incl; CD19 signal peptide, FLAG tag, linker, NLuc, AcV5; also called CD19-GGSG-NLuc-AcV5
Which results are given for B3?
Mean Luc activity [11]: 3830; Mean Luc activity [12]: 237000; fold NLuc value over uninfected or control CAR cells [13]: > 85 fold; binding result [14]: no binding; binding result [15]: no binding; binding result [16]: no binding; binding result [17]: no binding; binding result [18]: no binding; Mean Luc activity [1]: 16400; Mean Luc activity [19]: 237000; Mean Luc activity [2]: 5190

B4: SLAMF7-CS1-ECD-GGSG-NLuc-4xFlag-2xStreptag-8xHis-T2A-Pac (receptor)
chain: not shown
notes: Entry = whole insert incl; T2A-Pac; also called 062816-A01
Which “Mean Luc activity” value [11] does the source give for B4 here?
The value was 100000.

B5: CD8SP-CD19-4G7-Mlu-GSG-NLuc-AcV5 (scFv)
scFv: not shown
notes: Entry = whole insert incl. signal peptide; also called 021417-Z04
Which results are given for B5?
Mean Luc activity [20]: 4320; Mean Luc activity [21]: 380000

B6: CD8SP-hCD19-Bu12-(vL-vH)-GGSG-NLuc-AcV5 (scFv)
scFv: not shown
notes: Entry = whole insert incl. signal peptide; also called 021417-T05
What does the source list for B6?
Mean Luc activity [20]: 1610; Mean Luc activity [21]: 358000
